# Entries after “also recorded” stand apart in the source; their conditions may differ.
# Tests used:
# Nalm6 cells = assay: JNG assay, co-culture with Nalm6 cells; type: cell-based; conditions: co-culture with Nalm6
# Outline: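 Jurkat NFAT-GFP reporter cells stably expressing lentivirally transduced SARs, drug-selected where possible, were co-cultured with target cells at E:T ≈1:2 for ~4–18 h. GFP measured by FACS; scored +/- to 5+ (~5–50% GFP+ cells) above parental reporter cells.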
# L363 cells = assay: JNG assay, co-culture with L363 cells; type: cell-based; conditions: co-culture with L363
# Outline: (§1)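 Jurkat NFAT-GFP (JNG) cells stably transduced with SARs by lentivirus, with drug selection where the construct carried a resistance gene, then co-cultured with target cells at E:T ~1:2 for ~4–18 h. % GFP-positive cells measured by FACS against parental JNG; +/- to 5+ correspond to ~5–50% GFP-positive.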
# RAJI-CD19-KO cells = assay: JNG assay, co-culture with RAJI-CD19-KO cells; type: cell-based; conditions: co-culture with Raji-CD19-KO
# Outline: as §1
# SKOV-3 cells = assay: JNG assay, co-culture with SKOV-3 cells; type: cell-based; conditions: co-culture with SKOV-3
# Procedure: Cellular supernatant is collected and assayed for the induction of cytokines (e.g., IL2).
# JNG (Jurkat cells expressing EGFP under an NFAT promoter) were infected with lentiviral vectors encoding different single chain and multi-chain SARs by spinfection in the presence of 8 µg/ml of Polybrene® (Sigma, Catalog no. H9268). The Jurkat-NFAT-GFP cells are engineered in such a way that the IL-2 promoter, which carries NFAT binding sites, is cloned upstream of the GFP gene. These cells have been used to study signaling via TCR and CAR. The different SARs were stably expressed in Jurkat NFAT-GFP cells by lentiviral mediated gene transfer, followed by selection with puromycin or blasticidin. No drug selection was used in case the construct lacked an antibiotic resistance gene. The SAR-expressing Jurkat-NFAT-GFP cells were cocultured with the target cells at E:T ratio of approximately 1:2 for approximately 4 hours to 18 hours. When the interaction between SIRs and their target antigen results in activation of the NFAT pathway, GFP expression is induced. […] GFP expression was monitored by FACS analysis. The Jurkat-NFAT-GFP (parental) cells were used as control. The structure of different constructs can be determined based on their names. […] The sequence of the other constructs in the table can be similarly determined from their names and by referring to the different Tables of this disclosure that provide the names and SEQ ID NO of the different modules. Alternatively, the composition and modular architecture of the different SAR constructs can be determined from their sequences by bioinformatics tools, including using nucleic acid and amino acids homology searches. A SAR is considered positive in the assay in case the SAR expressing Jurkat-NFAT-GFP cells show greater % GFP positive cells when cultured with the target cell line as compared to parental Jurkat-NFAT-GFP cells. […] In general, the number +/-, +, 2+, 3+, 4+, 5+ refer to approximately 5%, 10%, 20%, 30%, 40% and 50% GFP positive cells. The % of GFP induction in the above assay is dependent not only the relative strength of the SAR but also, among other factors, on the relative level of expression of the SAR in the JNG cells and the relative level of expression of the target antigen in the target cell line. To control for the difference in gene transduction efficiency of the different SAR constructs, the experiment was conducted with JNG cells transduced with SAR constructs co-expressing a drug resistance gene (e.g., puromycin or PAC) followed by drug selection to generate a stable population of SAR-expressing cells. It is to be noted that the drug resistance gene (e.g., PAC) in the SAR constructs is optional and in vivo studies were conducted with SAR constructs lacking the PAC gene.
# KMH2 (PSMA-low) cells = assay: JNG NFAT-GFP induction on co-culture with KMH2
# Huh-7 cells = assay: JNG NFAT-GFP induction on co-culture with Huh-7
Molecule,NFAT-GFP ASSAY: Nalm6 (Nalm6 cells),NFAT-GFP ASSAY: L363 (L363 cells),NFAT-GFP ASSAY: Raji-CD19-KO (RAJI-CD19-KO cells),NFAT-GFP ASSAY: SKOV-3 (SKOV-3 cells),NFAT-GFP ASSAY: KMH2 (KMH2 (PSMA-low) cells),NFAT-GFP ASSAY: Huh-7 (Huh-7 cells)
22177 (protein) MALPVTALLLPLALLLHAARPLFNQEVQIPLTESYCGPCPKNWICYKNNCYQFFDESKNWYESQASCMSQNASLLKVYSKEDQDLLKLVKSYHWMGLVHIPTNGSWQWEDGSILSPNLLTIIEMQKGDCALYASSFKGYIENCSTPNTYICMQRTVGGGGSGGGGSGGGGSDLFNQEVQIPLTESYCGPCPKNWICYKNNCYQFFDESKNWYESQASCMSQNASLLKVYSKEDQDLLKLVKSYHWMGLVHIPTNGSWQWEDGSILSPNLLTIIEMQKGDCALYASSFKGYIENCSTPNTYICMQRTVGTGGGGSGGGGSGGGGSEFDIQMTQSPSSLSASVGDRVTITCKASDHINNWLAWYQQKPGQAPKLLIYGATTLETGVPSRFSGSGSGTDYTLTISSLQPEDFATYYCQQSWNTPWTFGQGTKLEIKRLEDLKNVFPPEVAVFEPSKAEIAHTQKATLVCLATGFYPDHVELSWWVNGKEVHSGVCTDPQPLKEQPALNDSRYCLSSRLRVSATFWQNPRNHFRCQVQFYGLSENDEWTQDRAKPVTQIVSAEAWGRADCGITSASYHQGVLSATILYEILLGKATLYAVLVSALVLMAMVKRKDSRGRAKRSGSGATNFSLLKQAGDVEENPGPTSATMDWIWRILFLVGAATGAHSGPQVQLQESGGGLAQAGGSLRLSCAASGRTFSMGWFRQAPGKEREFVAAITYSGGSPYYASSVRGRFTISRDNAKNTVYLQMNSLKPEDTAVYYCAANPTYGSDWNAENWGQGTQVTVSSGSGGGGSGGGGSGGGGSFEQVQLQQPGAELVKPGASVKMSCKASGYAFSSYWINWMKQKPGQGLEWIGQIYPGDGDTNYNGKFKGRATLTADTSSSTAYMQLSSLTSEDSAVYFCARSITTVVGCAMDYWGQGTSVTVSSTRIQNPDPAVYQLRDSKSSDKSVCLFTDFDSQTNVSQSKDSDVYITDKCVLDMRSMDFKSNSAVAWSNKSDFACANAFNNSIIPEDTFFPSSDVPCDVKLVEKSFETDTNLNFQNLSVIGFRILLLKVAGFNLLMTLRLWSSRAKRSGSGVKQTLNFDLLKLAGDVESNPGPSRGHMTEYKPTVRLATRDDVPRAVRTLAAAFADYPATRHTVDPDRHIERVTELQELFLTRVGLDIGKVWVADDGAAVAVWTTPESVEAGAVFAEIGPRMAELSGSRLAAQQQMEGLLAPHRPKEPAWFLATVGVSPDHQGKGLGSAVVLPGVEAAERAGVPAFLETSAPRNLPFYERLGFTVTADVEVPEGPRTWCMTRKPGA,"3+ (refer to approximately 5%, 10%, 20%, 30%, 40% and 50% GFP positive cells)","+ (refer to approximately 5%, 10%, 20%, 30%, 40% and 50% GFP positive cells)","2+ (refer to approximately 5%, 10%, 20%, 30%, 40% and 50% GFP positive cells)","2+ (refer to approximately 5%, 10%, 20%, 30%, 40% and 50% GFP positive cells)",–,–
21886 (protein) MALPVTALLLPLALLLHAARPDIQMTQSPSSLSASVGDRVTITCKASQDVGTAVDWYQQKPGKAPKLLIYWASTRHTGVPSRFSGSGSGTDFTLTISSLQPEDFATYYCQQYNSYPLTFGQGTKVEIKRLEAEISHTQKATLVCLATGFYPDHVELSWWVNGKEVHSGVCTDPQPLKEQPALNDSRYCLSSRLRVSATFWQNPRNHFRCQVQFYGLSENDEWTQDRAKPVTQIVSAEAWGRADCGFTSESYQQGVLSATILYEILLGKATLYAVLVSALVLMAMVKRKDSRGRAKRSGSGATNFSLLKQAGDVEENPGPTSMDWIWRILFLVGAATGAHSFEVQLVESGGGLVQPGGSLRLSCAASGYTFTEYTIHWVRQAPGKGLEWVANINPNNGGTTYNQKFEDRFTISRDNSKNTLYLQMNSLRAEDTAVYYCARGWNFDYWGQGTLVTVSSTRDKSVCLFTDFDSQTNVSQSKDSDVYITDKCVLDMRSMDFKSNSAVAWSNKSDFACANAFNNSIIPEDTFFPSPESSCDVKLVEKSFETDTNLNFQNLSVIGFRILLLKVAGFNLLMTLRLWSSRAKRSGSGVKQTLNFDLLKLAGDVESNPGPSRGHMTEYKPTVRLATRDDVPRAVRTLAAAFADYPATRHTVDPDRHIERVTELQELFLTRVGLDIGKVWVADDGAAVAVWTTPESVEAGAVFAEIGPRMAELSGSRLAAQQQMEGLLAPHRPKEPAWFLATVGVSPDHQGKGLGSAVVLPGVEAAERAGVPAFLETSAPRNLPFYERLGFTVTADVEVPEGPRTWCMTRKPGA,–,–,–,–,negligible GFP induction; also recorded: negligible activity,negligible GFP induction; also recorded: negligible activity
21882 (protein) MALPVTALLLPLALLLHAARPDIQMTQSPSSLSASVGDRVTITCKASQDVGTAVDWYQQKPGKAPKLLISWASTRHTGVPSRFSGSGSGTDFTLTISSLQPEDFATYFCQQYNSYPLTFGQGTKVEIKRTVLEDLKNVFPPEVAVFEPSEAEISHTQKATLVCLATGFYPDHVELSWWVNGKEVHSGVCTDPQPLKEQPALNDSRYCLSSRLRVSATFWQNPRNHFRCQVQFYGLSENDEWTQDRAKPVTQIVSAEAWGRADCGFTSESYQQGVLSATILYEILLGKATLYAVLVSALVLMAMVKRKDSRGRAKRSGSGATNFSLLKQAGDVEENPGPTSMDWIWRILFLVGAATGAHSFEVQLVESGGGLVQPGGSLRLSCAASGFTFTDYTIHWVRQAPGKGLEWVANINPNNGGTTYNQKFEDRFTISRDNSKNTLYLQMNSLRAEDTAVYYCARGWNFDYWGQGTLVTVSSTRIQNPDPAVYQLRDSKSSDKSVCLFTDFDSQTNVSQSKDSDVYITDKCVLDMRSMDFKSNSAVAWSNKSDFACANAFNNSIIPEDTFFPSPESSCDVKLVEKSFETDTNLNFQNLSVIGFRILLLKVAGFNLLMTLRLWSSRAKRSGSGVKQTLNFDLLKLAGDVESNPGPSRGHMTEYKPTVRLATRDDVPRAVRTLAAAFADYPATRHTVDPDRHIERVTELQELFLTRVGLDIGKVWVADDGAAVAVWTTPESVEAGAVFAEIGPRMAELSGSRLAAQQQMEGLLAPHRPKEPAWFLATVGVSPDHQGKGLGSAVVLPGVEAAERAGVPAFLETSAPRNLPFYERLGFTVTADVEVPEGPRTWCMTRKPGA,–,–,–,–,negligible GFP induction,negligible GFP induction
21884 (protein) MALPVTALLLPLALLLHAARPDIQMTQSPSSLSASVGDRVTITCKASQDVGTAVDWYQQKPGKAPKLLIYWASTRHTGVPSRFSGSGSGTDFTLTISSLQPEDFATYYCQQYNSYPLTFGQGTKVEIKRLETIFLPSIAETKLQKAGTYLCLLEKFFPDVIKIHWQEKKSNTILGSQEGNTMKTNDTYMKFSWLTVPEKSLDKEHRCIVRHENNKNGVDQEIIFPPIKTDVITMDPKDNCSKDANDTLLLQLTNTSAYYMYLLLLLKSVVYFAIITCCLLRRTAFCCNGEKSRAKRSGSGATNFSLLKQAGDVEENPGPTSMDWIWRILFLVGAATGAHSFEVQLVESGGGLVQPGGSLRLSCAASGYTFTEYTIHWVRQAPGKGLEWVANINPNNGGTTYNQKFEDRFTISRDNSKNTLYLQMNSLRAEDTAVYYCARGWNFDYWGQGTLVTVSSTRPHTKPSVFVMKNGTNVACLVKEFYPKDIRINLVSSKKITEFDPAIVISPSGKYNAVKLGKYEDSNSVTCSVQHDNKTVHSTDFEVKTDSTDHVKPKETENTKQPSKSCHKPKAIVHTEKVNMMSLTVLGLRMLFAKTVAVNFLLTAKLFFLRAKRSGSGVKQTLNFDLLKLAGDVESNPGPSRGHMTEYKPTVRLATRDDVPRAVRTLAAAFADYPATRHTVDPDRHIERVTELQELFLTRVGLDIGKVWVADDGAAVAVWTTPESVEAGAVFAEIGPRMAELSGSRLAAQQQMEGLLAPHRPKEPAWFLATVGVSPDHQGKGLGSAVVLPGVEAAERAGVPAFLETSAPRNLPFYERLGFTVTADVEVPEGPRTWCMTRKPGA,–,–,–,–,negligible GFP induction,negligible GFP induction
